Values quoted from earlier work, collected in patent US7816516B2, “Conjugates of hydroxyalkyl starch and an active agent” (Fresenius Kabi Deutschland GmbH, priority 2001, dated 2010).

Key:
[1] = isolated haemoglobin; dimers eliminated via the kidneys
[2] = in vivo

Compound	biological half-life in the blood circulation [1]	portion of renal elimination [2]
haemoglobin	approx. 1 hour	
CO[C@@]12[C@H](COC(N)=O)C3=C(C(=O)C(C)=C(N)C3=O)N1C[C@@H]1N[C@@H]12 [mitomycin C]		approximately 18%
